Laboratory results reported in article PMC8274477 (Frontiers in Cell and Developmental Biology, 2021).

B1: HTATIP2 (natural protein, human, UniProt Q9BUP3 1-242, looked up)
chain: MAETEALSKLREDFRMQNKSVFILGASGETGRVLLKEILEQGLFSKVTLIGRRKLTFDEEAYKNVNQEVVDFEKLDDYASAFQGHDVGFCCLGTTRGKAGAEGFVRVDRDYVLKSAELAKAGGCKHFNLLSSKGADKSSNFLYLQVKGEVEAKVEELKFDRYSVFRPGVLLCDRQESRPGEWLVRKFFGSLPDSWASGHSVPVVTVVRAMLNNVVRPRDKQMELLENKAIHDLGKAHGSLKP
notes: HTATIP2; protein on the human proteome microarray; source: spotted on the HuProt human proteome microarray
B2: GTF2B (natural protein, human, UniProt Q00403 1-316, looked up)
chain: MASTSRLDALPRVTCPNHPDAILVEDYRAGDMICPECGLVVGDRVIDVGSEWRTFSNDKATKDPSRVGDSQNPLLSDGDLSTMIGKGTGAASFDEFGNSKYQNRRTMSSSDRAMMNAFKEITTMADRINLPRNIVDRTNNLFKQVYEQKSLKGRANDAIASACLYIACRQEGVPRTFKEICAVSRISKKEIGRCFKLILKALETSVDLITTGDFMSRFCSNLCLPKQVQMAATHIARKAVELDLVPGRSPISVAAAAIYMASQASAEKRTQKEIGDIAGVADVTIRQSYRLIYPRAPDLFPTDFKFDTPVDKLPQL
notes: GTF2B; protein on the human proteome microarray; source: spotted on the HuProt human proteome microarray
B3: CUTA (natural protein, human, UniProt O60888 33-179, looked up)
chain: RLLLLPRVLLTMASGSPPTQPSPASDSGSGYVPGSVSAAFVTCPNEKVAKEIARAVVEKRLAACVNLIPQITSIYEWKGKIEEDSEVLMMIKTQSSLVPALTDFVRSVHPYEVAEVIALPVEQGNFPYLQWVRQVTESVSDSITVLP
notes: CUTA; protein on the human proteome microarray; source: spotted on the HuProt human proteome microarray
B4: CRYZ (natural protein, human, UniProt Q08257 1-329, looked up)
chain: MATGQKLMRAVRVFEFGGPEVLKLRSDIAVPIPKDHQVLIKVHACGVNPVETYIRSGTYSRKPLLPYTPGSDVAGVIEAVGDNASAFKKGDRVFTSSTISGGYAEYALAADHTVYKLPEKLDFKQGAAIGIPYFTAYRALIHSACVKAGESVLVHGASGGVGLAACQIARAYGLKILGTAGTEEGQKIVLQNGAHEVFNHREVNYIDKIKKYVGEKGIDIIIEMLANVNLSKDLSLLSHGGRVIVVGSRGTIEINPRDTMAKESSIIGVTLFSSTKEEFQQYAAALQAGMEIGWLKPVIGSQYPLEKVAEAHENIIHGSGATGKMILLL
notes: CRYZ; protein on the human proteome microarray; source: spotted on the HuProt human proteome microarray
B5: DNALI1 (natural protein, human, UniProt O14645 1-258, looked up)
chain: MIPPADSLLKYDTPVLVSRNTEKRSPKARLLKVSPQQPGPSGSAPQPPKTKLPSTPCVPDPTKQAEEILNAILPPREWVEDTQLWIQQVSSTPSTRMDVVHLQEQLDLKLQQRQARETGICPVRRELYSQCFDELIREVTINCAERGLLLLRVRDEIRMTIAAYQTLYESSVAFGMRKALQAEQGKSDMERKIAELETEKRDLERQVNEQKAKCEATEKRESERRQVEEKKHNEEIQFLKRTNQQLKAQLEGIIAPKK
notes: DNALI1; protein on the human proteome microarray; source: spotted on the HuProt human proteome microarray
B6: C9orf9 (natural protein, human, UniProt Q96E40 1-222, looked up)
chain: MNEVKESLRSIEQKYKLFQQQQLTFTAALEHCRENAHDKIRPISSIGQVQSYMEHYCNSSTDRRVLLMFLDICSELNKLCQHFEAVHSGTPVTNNLLEKCKTLVSQSNDLSSLRAKYPHDVVNHLSCDEARNHYGGVVSLIPLILDLMKEWIAHSEKLPRKVLQHVSEPQAHQESTRGAARPAQAIGTQPRATKHKCRQLTKASLKPRGCSKPPWRPPGGKL
notes: C9orf9; protein on the human proteome microarray; source: spotted on the HuProt human proteome microarray
B7: CCNB1IP1 (natural protein, human, UniProt Q9NPC3 1-277, looked up)
chain: MSLCEDMLLCNYRKCRIKLSGYAWVTACSHIFCDQHGSGEFSRSPAICPACNSTLSGKLDIVRTELSPSEEYKAMVLAGLRPEIVLDISSRALAFWTYQVHQERLYQEYNFSKAEGHLKQMEKIYTQQIQSKDVELTSMKGEVTSMKKVLEEYKKKFSDISEKLMERNRQYQKLQGLYDSLRLRNITIANHEGTLEPSMIAQSGVLGFPLGNNSKFPLDNTPVRNRGDGDGDFQFRPFFAGSPTAPEPSNSFFSFVSPSRELEQQQVSSRAFKVKRI
notes: CCNB1IP1; protein on the human proteome microarray; source: spotted on the HuProt human proteome microarray
B8: GBGT1 (natural protein, human, UniProt Q8N5D6 1-347, looked up)
chain: MHRRRLALGLGFCLLAGTSLSVLWVYLENWLPVSYVPYYLPCPEIFNMKLHYKREKPLQPVVWSQYPQPKLLEHRPTQLLTLTPWLAPIVSEGTFNPELLQHIYQPLNLTIGVTVFAVGKYTHFIQSFLESAEEFFMRGYRVHYYIFTDNPAAVPGVPLGPHRLLSSIPIQGHSHWEETSMRRMETISQHIAKRAHREVDYLFCLDVDMVFRNPWGPETLGDLVAAIHPSYYAVPRQQFPYERRRVSTAFVADSEGDFYYGGAVFGGQVARVYEFTRGCHMAILADKANGIMAAWREESHLNRHFISNKPSKVLSPEYLWDDRKPQPPSLKLIRFSTLDKDISCLRS
notes: GBGT1; protein on the human proteome microarray; source: spotted on the HuProt human proteome microarray
B9: CSRP1 (natural protein, human, UniProt P21291 1-193, looked up)
chain: MPNWGGGKKCGVCQKTVYFAEEVQCEGNSFHKSCFLCMVCKKNLDSTTVAVHGEEIYCKSCYGKKYGPKGYGYGQGAGTLSTDKGESLGIKHEEAPGHRPTTNPNASKFAQKIGGSERCPRCSQAVYAAEKVIGAGKSWHKACFRCAKCGKGLESTTLADKDGEIYCKGCYAKNFGPKGFGFGQGAGALVHSE
notes: CSRP1; protein on the human proteome microarray; source: spotted on the HuProt human proteome microarray
B10: GCLM (natural protein, human, UniProt P48507 1-274, looked up)
chain: MGTDSRAAKALLARARTLHLQTGNLLNWGRLRKKCPSTHSEELHDCIQKTLNEWSSQINPDLVREFPDVLECTVSHAVEKINPDEREEMKVSAKLFIVESNSSSSTRSAVDMACSVLGVAQLDSVIIASPPIEDGVNLSLEHLQPYWEELENLVQSKKIVAIGTSDLDKTQLEQLYQWAQVKPNSNQVNLASCCVMPPDLTAFAKQFDIQLLTHNDPKELLSEASFQEALQESIPDIQAHEWVPLWLLRYSVIVKSRGIIKSKGYILQAKRRGS
notes: GCLM; protein on the human proteome microarray; source: spotted on the HuProt human proteome microarray
B11: CYB5R1 (natural protein, human, UniProt Q9UHQ9 1-305, looked up)
chain: MGIQTSPVLLASLGVGLVTLLGLAVGSYLVRRSRRPQVTLLDPNEKYLLRLLDKTTVSHNTKRFRFALPTAHHTLGLPVGKHIYLSTRIDGSLVIRPYTPVTSDEDQGYVDLVIKVYLKGVHPKFPEGGKMSQYLDSLKVGDVVEFRGPSGLLTYTGKGHFNIQPNKKSPPEPRVAKKLGMIAGGTGITPMLQLIRAILKVPEDPTQCFLLFANQTEKDIILREDLEELQARYPNRFKLWFTLDHPPKDWAYSKGFVTADMIREHLPAPGDDVLVLLCGPPPMVQLACHPNLDKLGYSQKMRFTY
notes: CYB5R1; protein on the human proteome microarray; source: spotted on the HuProt human proteome microarray
B12: GAPDH (natural protein)
chain: not shown
notes: GAPDH; protein on the human proteome microarray; source: spotted on the HuProt human proteome microarray
B13: DECR2 (natural protein, human, UniProt Q9NUI1 1-292, looked up)
chain: MAQPPPDVEGDDCLPAYRHLFCPDLLRDKVAFITGGGSGIGFRIAEIFMRHGCHTVIASRSLPRVLTAARKLAGATGRRCLPLSMDVRAPPAVMAAVDQALKEFGRIDILINCAAGNFLCPAGALSFNAFKTVMDIDTSGTFNVSRVLYEKFFRDHGGVIVNITATLGNRGQALQVHAGSAKAAVDAMTRHLAVEWGPQNIRVNSLAPGPISGTEGLRRLGGPQASLSTKVTASPLQRLGNKTEIAHSVLYLASPLASYVTGAVLVADGGAWLTFPNGVKGLPDFASFSAKL
notes: DECR2; protein on the human proteome microarray; source: spotted on the HuProt human proteome microarray
B14: EIF4H (natural protein)
chain: not shown
notes: EIF4H; protein on the human proteome microarray; source: spotted on the HuProt human proteome microarray
B15: FAM49B (natural protein, human, UniProt Q9NUQ9 1-324, looked up)
chain: MGNLLKVLTCTDLEQGPNFFLDFENAQPTESEKEIYNQVNVVLKDAEGILEDLQSYRGAGHEIREAIQHPADEKLQEKAWGAVVPLVGKLKKFYEFSQRLEAALRGLLGALTSTPYSPTQHLEREQALAKQFAEILHFTLRFDELKMTNPAIQNDFSYYRRTLSRMRINNVPAEGENEVNNELANRMSLFYAEATPMLKTLSDATTKFVSENKNLPIENTTDCLSTMASVCRVMLETPEYRSRFTNEETVSFCLRVMVGVIILYDHVHPVGAFAKTSKIDMKGCIKVLKDQPPNSVEGLLNALRYTTKHLNDETTSKQIKSMLQ
notes: FAM49B; protein on the human proteome microarray; source: spotted on the HuProt human proteome microarray
B16: CSRP3 (natural protein, human, UniProt P50461 1-194, looked up)
chain: MPNWGGGAKCGACEKTVYHAEEIQCNGRSFHKTCFHCMACRKALDSTTVAAHESEIYCKVCYGRRYGPKGIGYGQGAGCLSTDTGEHLGLQFQQSPKPARSVTTSNPSKFTAKFGESEKCPRCGKSVYAAEKVMGGGKPWHKTCFRCAICGKSLESTNVTDKDGELYCKVCYAKNFGPTGIGFGGLTQQVEKKE
notes: CSRP3; protein on the human proteome microarray; source: spotted on the HuProt human proteome microarray
B17: CDCA3 (natural protein, human, UniProt Q99618 1-268, looked up)
chain: MGSAKSVPVTPARPPPHNKHLARVADPRSPSAGILRTPIQVESSPQPGLPAGEQLEGLKHAQDSDPRSPTLGIARTPMKTSSGDPPSPLVKQLSEVFETEDSKSNLPPEPVLPPEAPLSSELDLPLGTQLSVEEQMPPWNQTEFPSKQVFSKEEARQPTETPVASQSSDKPSRDPETPRSSGSMRNRWKPNSSKVLGRSPLTILQDDNSPGTLTLRQGKRPSPLSENVSELKEGAILGTGRLLKTGGRAWEQGQDHDKENQHFPLVES
notes: CDCA3; protein on the human proteome microarray; source: spotted on the HuProt human proteome microarray
B18: ISG20 (natural protein)
chain: not shown
notes: ISG20; protein on the human proteome microarray; source: spotted on the HuProt human proteome microarray
B19: KHDRBS3 (natural protein, human, UniProt O75525 1-346, looked up)
chain: MEEKYLPELMAEKDSLDPSFTHALRLVNQEIEKFQKGEGKDEEKYIDVVINKNMKLGQKVLIPVKQFPKFNFVGKLLGPRGNSLKRLQEETLTKMSILGKGSMRDKAKEEELRKSGEAKYFHLNDDLHVLIEVFAPPAEAYARMGHALEEIKKFLIPDYNDEIRQAQLQELTYLNGGSENADVPVVRGKPTLRTRGVPAPAITRGRGGVTARPVGVVVPRGTPTPRGVLSTRGPVSRGRGLLTPRARGVPPTGYRPPPPPPTQETYGEYDYDDGYGTAYDEQSYDSYDNSYSTPAQSGADYYDYGHGLSEETYDSYGQEEWTNSRHKAPSARTAKGVYRDQPYGRY
notes: KHDRBS3; protein on the human proteome microarray; source: spotted on the HuProt human proteome microarray
B20: GSTZ1 (natural protein, human, UniProt O43708 1-216, looked up)
chain: MQAGKPILYSYFRSSCSWRVRIALALKGIDYKTVPINLIKDRGQQFSKDFQALNPMKQVPTLKIDGITIHQSLAIIEYLEEMRPTPRLLPQDPKKRASVRMISDLIAGGIQPLQNLSVLKQVGEEMQLTWAQNAITCGFNALEQILQSTAGIYCVGDEVTMADLCLVPQVANAERFKVDLTPYPTISSINKRLLVLEAFQVSHPCRQPDTPTELRA
notes: GSTZ1; protein on the human proteome microarray; source: spotted on the HuProt human proteome microarray

The binders below were run against T1, OTULIN (OTU deubiquitinase with linear linkage specificity, FAM105B), His-tagged, biotin-labelled (human, UniProt Q96BN8 1-352, biotin (label; sites not stated)) (assay: peptide or protein array; HuProt human proteome microarray; 5 ug/5 ml biotin-labelled LUBAC or OTULIN in solution, 1 h at room temperature; Cy5-streptavidin, scanned at 635 nm; BSA as negative control; hits: Z-score >= 3 and I_(Mean_Ratio) >= 1.4). Conditions: both partners purified.
T1 construct: OTULIN (FAM105B), cDNA in pET28a; also called HIS-OTULIN; source: E. coli BL21 (DE3), purified (His-tag Purification Resin), labelled with biotin; not shown: His6, N-terminal, kept

binding result | Binder
binds | B1
binds | B2
binds | B3
binds | B4
binds | B5
binds | B6
binds | B7
binds | B8
binds | B9
binds | B10
binds | B11
binds | B12
binds | B13
binds | B14
binds | B15
binds | B16
binds | B17
binds | B18
binds | B19
binds | B20
